Test results from paper PMC7897507.

Experiments:
[1] = tested on: EcSSB H55Y (Escherichia coli); assay: optical tweezers; conditions: 5 nM monomeric H55Y, k-b/kb, 12 pN, 50 mM Na+, 10 mM HEPES pH 7.5, room temperature, ssDNA at 12 pN unless stated, Mg2+ buffer adds 4 mM Mg2+, AFM 10 mM Na+, 10 mM Mg2+
[2] = tested on: EcSSB WT (Escherichia coli); assay: optical tweezers; conditions: 12 pN, 50 mM Na+, 10 mM HEPES pH 7.5, room temperature, ssDNA at 12 pN unless stated, Mg2+ buffer adds 4 mM Mg2+, AFM 10 mM Na+, 10 mM Mg2+

Substance: 8.1 knt ssDNA (pBACgus11)
- Kd [1]: 100 pM
- Kd ([2]; EcSSB8 mode, fit of equilibrium fractions (Fig. 2C)): 40 pM
- Kd ([2]; single-domain unwrapped EcSSB8 mode, from k-b/kb): 80 pM
